US20040006215A1 (Bristol-Myers Squibb, published 2004)
“And” between values parts separate entries of the source, which are not always exact repeats. Equal entries are not always repeated.

B1: human monoclonal antibody (HuMab) 2H9 (antibody, V domains shown)
VH: QVQLQQWGAGLLKPSETLSLTCAVYGGSFSGYYWSWIRQPPGKGLEWIGEINHSGSTKYTPSLKSRVTISVDTSKHQFSLKLSSVTAADTAVYYCARETVYYFDLWGRGTLVTVSS
VL: EIVLTQSPATLSLSPGERATLSCRASQSVSSNLAWYQQKPGQAPRLLIYDASNRATGIPARLSGSGSGTDFTLTISSLEPEDFAVYYCQQRSNWPWTFGQGTKVEIK
B2: human monoclonal antibody (HuMab) 5F11 (antibody, V domains shown)
VH: QVQLQQWGAGLLKPSETLSLTCAVYGGSFSAYYWSWIRQPPGKGLEWIGDINHGGGTNYNPSLKSRVTISVDTSKNQFSLKLNSVTAADTAVYYCASLTAYWGQGSLVTVSS
VL: DIQMTQSPTSLSASVGDRVTITCRASQGISSWLTWYQQKPEKAPKSLIYAASSLQSGVPSRFSGSGSGTDFTLTISSLQPEDFATYYCQQYDSYPITFGQGTRLEIK

Tests used:
[1] = molecular target: T1, recombinant CD30 (supernatant from transfected cells expressing recombinant CD30) (UniProt P28908 19-379, limits assumed); test: capture ELISA: recombinant CD30 captured on BerH2-coated wells, detection with AP-labeled goat anti-human IgG Fc, OD405
T1 construct: May be the same preparation as the soluble recombinant CD30 used for immunisation or as m4
T1 sequence (looked up): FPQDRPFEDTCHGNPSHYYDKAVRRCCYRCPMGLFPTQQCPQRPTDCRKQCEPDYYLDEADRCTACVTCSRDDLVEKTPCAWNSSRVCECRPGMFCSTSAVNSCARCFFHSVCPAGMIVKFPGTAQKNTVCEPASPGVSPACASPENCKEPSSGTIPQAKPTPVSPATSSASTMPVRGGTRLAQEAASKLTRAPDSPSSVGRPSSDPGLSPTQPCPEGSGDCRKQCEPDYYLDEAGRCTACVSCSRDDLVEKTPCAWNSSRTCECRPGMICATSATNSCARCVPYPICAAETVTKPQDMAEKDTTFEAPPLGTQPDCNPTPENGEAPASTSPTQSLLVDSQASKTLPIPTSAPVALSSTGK
Experimental: Microtiter wells were coated with BerH2. After blocking the wells with 5% BSA solution, supernatant from transfected cells expressing recombinant CD30 was allowed to react with BER-H2 coated wells. […] After 1 hour, the wells were washed with PBS-tween and the bound antibodies were detected by incubating the cells with an alkaline-phosphatase-labeled goat anti-human IgG Fc-specific probe, at 37° C. The excess probe was washed from the wells and the plate was developed with pNPP developer. The optical density at 405 nm was determined using a microtiter plate reader.

[2] = molecular target: T2, native CD30 expressed on cells (L540 Hodgkin's lymphoma cell line) (human, UniProt P28908 19-595); test: flow cytometry on L540 cells at 4 °C, detection with FITC-labeled goat anti-human IgG Fc, mean fluorescence intensity
T2 construct: whole, on cells; also called CD30 on L540 cells; CD30-expressing L540 cells
T2 sequence (looked up): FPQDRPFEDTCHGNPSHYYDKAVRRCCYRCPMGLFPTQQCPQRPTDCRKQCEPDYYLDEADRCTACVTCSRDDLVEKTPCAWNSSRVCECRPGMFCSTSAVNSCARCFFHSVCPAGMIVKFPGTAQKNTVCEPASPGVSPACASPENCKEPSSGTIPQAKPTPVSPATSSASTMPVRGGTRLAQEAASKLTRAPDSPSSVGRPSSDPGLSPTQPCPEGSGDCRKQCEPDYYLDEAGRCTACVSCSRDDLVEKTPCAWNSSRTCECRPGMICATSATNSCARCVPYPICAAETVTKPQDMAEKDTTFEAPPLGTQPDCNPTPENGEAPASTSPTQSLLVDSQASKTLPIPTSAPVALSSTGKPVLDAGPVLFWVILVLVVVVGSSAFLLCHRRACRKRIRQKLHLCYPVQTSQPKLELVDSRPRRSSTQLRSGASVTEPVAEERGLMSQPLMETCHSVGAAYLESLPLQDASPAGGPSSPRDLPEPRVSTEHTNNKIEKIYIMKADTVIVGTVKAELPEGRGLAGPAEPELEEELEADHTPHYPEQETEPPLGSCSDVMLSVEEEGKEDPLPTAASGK
Experimental: Antibodies were tested for binding to L540, a Hodgkin's lymphoma cell line that expresses high-levels of CD30. […] After 1 hour, the cells were washed with PBS and the bound antibodies were detected by incubating the cells with a FITC labeled goat anti-human IgG Fc-specific probe, at 4° C. The excess probe was washed from the cells with PBS and the cell associated fluorescence was determined by analysis using a FACScalibur instrument.

[3] = molecular target: native CD30 expressed on cells (L540 Hodgkin's lymphoma cell line) (human) (UniProt P28908); test: flow cytometry on L540 cells
[4] = molecular target: T3, Human CD30 antigen (Medarex, Inc.) (human) (UniProt P28908); test: SPR (Biacore 3000), 5F11 captured on protein A, CD30 as analyte, 1:1 Langmuir fit, experiment 2
T3 sequence (looked up): T1 sequence (looked up)

[5] = molecular target: native CD30 expressed on cells (L540 Hodgkin's lymphoma cell line) (human) (UniProt P28908); test: cell-based or functional assay
[6] = molecular target: T4, recombinant CD30 (supernatant from transfected cells expressing recombinant CD30) (UniProt P28908); test: capture ELISA: recombinant CD30 captured on BerH2-coated wells, detection with AP-labeled goat anti-human IgG Fc, OD405
T4 sequence (looked up): T1 sequence (looked up)

[7] = molecular target: native CD30 expressed on cells (L540 Hodgkin's lymphoma cell line) (human) (UniProt P28908); test: flow cytometry on L540 cells at 4 °C, detection with FITC-labeled goat anti-human IgG Fc, mean fluorescence intensity
[8] = molecular target: T3, Human CD30 antigen (Medarex, Inc.) (human); test: SPR (Biacore 3000), 5F11 captured on protein A, CD30 as analyte, 1:1 Langmuir fit, experiment 1

EC50 (read off the curve) [1] | EC50 (read off the curve) [2] | concentration at saturation [3] | Kd [4] | koff [4] | kon [4] | IC50 of growth inhibition (XTT assay) of L540 and Karpas 299 cells, 5F11 cross-linked by goat-anti-human IgG [5] | EC50 (read off the curve) [6] | EC50 (read off the curve) [7] | Kd [8] | koff [8] | kon [8] | Binder
~0.03 µg/mL | ~0.1 µg/mL | – | – | – | – | – | – | – | – | – | – | B1
– | – | < 1 µg/mL | 1.14 nM and 1.12 nM | 6.58e-05 s⁻¹ and 6.86e-05 s⁻¹ | 57700 M⁻¹ s⁻¹ and 61300 M⁻¹ s⁻¹ | 10 µg/mL | 0.04 µg/mL | 0.05 µg/mL | 1.23 nM and 1.36 nM | 7.47e-05 s⁻¹ and 7.03e-05 s⁻¹ | 60900 M⁻¹ s⁻¹ and 51600 M⁻¹ s⁻¹ | B2
